Assay results from US20230048046A1 (CUGENE, published 2023).

B1: huIL-15Rβ-6His (receptor, human, UniProt P14784 27-239, looked up)
chain: AVNGTSQFTCFYNSRANISCVWSQDGALQDTSCQVHAWPDRRRWNQTCELLPVSQASWACNLILGAPDSQKLTTVDIVTLRVLCREGVRWRVMAIQDFKPFENLRLMAPISLQVVHVETHRCNISWEISQASHYFERHLEFEARTLSPGHTWEEAPLLTLKQKQEWICLETLTPDTQYEFQVRVKPLQGEFTTWSPWSQPLAFRTKPAALGKD
notes: Coated on the ELISA plate; also called IL-15Rβ subunit; huIL-15R/3-6His (so in the source); not shown: 6His tag per the name

Tests used:
[1] = biological target: P-0313, C-terminal bivalent IL-15 S58D/IL-15Rα (non-covalent) Fc fusion protein (human, UniProt Q13261 31-107); experiment: ELISA
huIL-15Rβ-6His [2] = biological target: B1; experiment: ELISA, huIL-15Rβ-6His coated, anti-human IgG Fc-HRP detection
Procedure: (§1) The binding activity was tested in ELISA assay. Briefly, Nunc Maxisorp (ThermoFisher) plates were coated overnight at 4° C. with huIL-15R/3-6His at 1 μg/well (100 μl/well) in bicarbonate buffer pH 9.4 (ThermoFisher). After washing 3 times with PBS/0.05% Tween20, plates were incubated with SuperBlock (300 μl/well) at room temperature for 2 hrs. to block nonspecific binding. After washing, IL-15 compounds each at 3-fold serial dilutions with blocking buffer were added to the plates (100 μl/well) and incubated at room temperature for 1 hr. After washing, the Fc fusions were detected by 1 hr. incubation at room temperature with a goat anti-human IgG Fc secondary antibody conjugated with horseradish peroxidase (HRP) at 1:5000 dilution in blocking buffer (ThermoFisher) (100 μl/well). After washing, TMB substrate (ThermoFisher) was added (100 ul/well). Plates were sealed and incubated 5-20 min at room temperature in dark. Reaction was stopped by adding 2N sulfuric acid (Ricca Chemical) (50 uL/well) and absorbance was read at 450-590 nm.
(§2) The IL-15 variants have amino acid deletion, insertion or point mutations introduced in the human IL-15 peptide. […]

huIL-15Rβ-6His [3] = biological target: B1; experiment: ELISA EC50 against P-0153 (IL-15 wild type)
Procedure: as §1, §2

| Binder | binding result [1] | EC50 (huIL-15Rβ-6His [2]) | Fold change (huIL-15Rβ-6His [3]) |
| --- | --- | --- | --- |
| B1 | binds |  |  |
| P-0176, IL-15i1 (GS insertion after N95) in IL-15/IL-15Rα heterodimeric Fc fusion format (Fc fusion) chain 1: DKTHTCPPCPAPEAAGAPSVFLFPPKPKDTLMISRTPEVTCVVVDVSHEDPEVKFNWYVDGVEVHNAKTKPREEQYNSTYRVVSVLTVLHQDWLNGKEYKCKVSNKALPAPIEKTISKAKGQPREPQVYTLPPCREEMTKNQVSLSCAVKGFYPSDIAVEWESNGQPENNYKTTPPVLDSDGSFFLVSKLTVDKSRWQQGNVFSCSVMHEALHNHYTQKSLSLSPGEPKSSDKTHTSPPSPNWVNVISDLKKIEDLIQSMHIDATLYTESDVHPSCKVTAMKCFLLELQVISLESGDASIHDTVENLIILANNSLSSNGNVTESGCKECEELEEKNGSIKEFLQSFVHIVQMFINTS chain 2: DKTHTCPPCPAPEAAGAPSVFLFPPKPKDTLMISRTPEVTCVVVDVSHEDPEVKFNWYVDGVEVHNAKTKPREEQYNSTYRVVSVLTVLHQDWLNGKEYKCKVSNKALPAPIEKTISKAKGQPREPQVCTLPPSREEMTKNQVSLWCLVKGFYPSDIAVEWESNGQPENNYKTTPPVLDSDGSFFLYSKLTVDKSRWQQGNVFSCSVMHEALHNHYTQKSLSLSPGEPKSSDKTHTSPPSPITCPPPMSVEHADIWVKSYSLYSRERYICNSGFKRKAGTSSLTECVLNKATNVAHWTTPSLKCIRDPALVHQRPAPP |  | 10.2 nM | 16 fold |
| P-0177, IL-15i2 (GGSGG insertion after N95) in IL-15/IL-15Rα heterodimeric Fc fusion format (Fc fusion) chain 1: DKTHTCPPCPAPEAAGAPSVFLFPPKPKDTLMISRTPEVTCVVVDVSHEDPEVKFNWYVDGVEVHNAKTKPREEQYNSTYRVVSVLTVLHQDWLNGKEYKCKVSNKALPAPIEKTISKAKGQPREPQVYTLPPCREEMTKNQVSLSCAVKGFYPSDIAVEWESNGQPENNYKTTPPVLDSDGSFFLVSKLTVDKSRWQQGNVFSCSVMHEALHNHYTQKSLSLSPGEPKSSDKTHTSPPSPNWVNVISDLKKIEDLIQSMHIDATLYTESDVHPSCKVTAMKCFLLELQVISLESGDASIHDTVENLIILANNSLSSNGNVTESGCKECEELEEKNGGSGGIKEFLQSFVHIVQMFINTS chain 2: DKTHTCPPCPAPEAAGAPSVFLFPPKPKDTLMISRTPEVTCVVVDVSHEDPEVKFNWYVDGVEVHNAKTKPREEQYNSTYRVVSVLTVLHQDWLNGKEYKCKVSNKALPAPIEKTISKAKGQPREPQVCTLPPSREEMTKNQVSLWCLVKGFYPSDIAVEWESNGQPENNYKTTPPVLDSDGSFFLYSKLTVDKSRWQQGNVFSCSVMHEALHNHYTQKSLSLSPGEPKSSDKTHTSPPSPITCPPPMSVEHADIWVKSYSLYSRERYICNSGFKRKAGTSSLTECVLNKATNVAHWTTPSLKCIRDPALVHQRPAPP |  | 38 nM | 59 fold |
